Measurements as given in publication PMC5462797, “A protein-protein interaction dictates Borrelial infectivity” (Scientific Reports, 2017).

B1: BB0323 (residues 22–242) (domain or fragment)
chain: KTPPESRESKNAKIAQPDNKNFQLRDIKDIKNELIRERGHLFYSKEFNEAERLEEAMKQSFSKKKAIEGNEIALKVLERYKTIIRETREKKEKTNYLKENIEKYLNDAEANEAYIWIPLEIDEVNNLYFEATRKYKNYDLDNALDMYSKAFNRAQQAAKNAKEAKALKETDERMYKQLKALEAASNLPIYSNNKLIKPSPWNGRAFIKERNSHLNLLNTNK
notes: BB0323 of Borrelia burgdorferi, residues 22-242; also called BB0323 N2; BB0323^22-242

Experiments:
[1] = molecular target: the molecule itself; test: SEC; analytical SEC of single proteins on Superdex 75 (10/300), 50 mM Tris-HCl pH 8.0, 0.15 M NaCl, 0.5 mM EDTA, 4 °C; BB0238 9-44 uM, BB0238^∆IM 10-40 uM, BB0323 (22-242) 8 uM; monomer-dimer
BB0323 (residues 22–242) = molecular target: B1; test: SEC; analytical SEC of ~1:1 mixtures: 10 uM BB0238-BB0323 on Superdex 200; ~9 uM BB0238^∆IM with 8 uM BB0323 22-242 on Superdex 75; 50 mM Tris-HCl pH 8.0, 0.15 M NaCl, 0.5 mM EDTA, 4 °C; settings: both partners purified

| Binder | stoichiometry N [1] | stoichiometry N (BB0323 (residues 22–242)) |
| --- | --- | --- |
| BB0238 (purified recombinant, wild type) (natural protein, BB0238 of Borrelia burgdorferi; monomer-dimer mixture in solution; also called BB0238 WT; intact BB0238) QGSSSYIDKQKELAIFYYEVGQRYINVGKIKKGKLFQAKALKIYPDLKKGFDIKLAVKELDARIKDDNPKVVMLEDIKLEEIPGIVHEKIEINDFTNAPKIEYIAQRERSKNQDKIIKFQFGKFARALISRNFDLFDSVIADKVNVMGQFESKNDFISTLSSASSKADADELEYLSVDDYYDLKSLKISKSNDTSFAVNVNAKKNDVTKNFPFWKERQTLIFTTEDDNNWFLSSIN | 2 | 1 |
| B1 | 2 | – |
